{"source": "paper PMC2944003", "binders": {"B1": {"name": "Factor H (fH), purified human, P08603 19-1231 (natural protein)", "chain": "EDCNELPPRRNTEILTGSWSDQTYPEGTQAIYKCRPGYRSLGNVIMVCRKGEWVALNPLRKCQKRPCGHPGDTPFGTFTLTGGNVFEYGVKAVYTCNEGYQLLGEINYRECDTDGWTNDIPICEVVKCLPVTAPENGKIVSSAMEPDREYHFGQAVRFVCNSGYKIEGDEEMHCSDDGFWSKEKPKCVEISCKSPDVINGSPISQKIIYKENERFQYKCNMGYEYSERGDAVCTESGWRPLPSCEEKSCDNPYIPNGDYSPLRIKHRTGDEITYQCRNGFYPATRGNTAKCTSTGWIPAPRCTLKPCDYPDIKHGGLYHENMRRPYFPVAVGKYYSYYCDEHFETPSGSYWDHIHCTQDGWSPAVPCLRKCYFPYLENGYNQNYGRKFVQGKSIDVACHPGYALPKAQTTVTCMENGWSPTPRCIRVKTCSKSSIDIENGFISESQYTYALKEKAKYQCKLGYVTADGETSGSITCGKDGWSAQPTCIKSCDIPVFMNARTKNDFTWFKLNDTLDYECHDGYESNTGSTTGSIVCGYNGWSDLPICYERECELPKIDVHLVPDRKKDQYKVGEVLKFSCKPGFTIVGPNSVQCYHFGLSPDLPICKEQVQSCGPPPELLNGNVKEKTKEEYGHSEVVEYYCNPRFLMKGPNKIQCVDGEWTTLPVCIVEESTCGDIPELEHGWAQLSSPPYYYGDSVEFNCSESFTMIGHRSITCIHGVWTQLPQCVAIDKLKKCKSSNLIILEEHLKNKKEFDHNSNIRYRCRGKEGWIHTVCINGRWDPEVNCSMAQIQLCPPPPQIPNSHNMTTTLNYRDGEKVSVLCQENYLIQEGEEITCKDGRWQSIPLCVEKIPCSQPPQIEHGTINSSRSSQESYAHGTKLSYTCEGGFRISEENETTCYMGKWSSPPQCEGLPCKSPPEISHGVVAHMSDSYQYGEEVTYKCFEGFGIDGPAIAKCLGEKWSHPPSCIKTDCLSLPSFENAIPMGEKKDVYKAGEQVTYTCATYYKMDGASNVTCINSRWTGRPTCRDTSCVNPPTVQNAYIVSRQMSKYPSGERVRYQCRSPYEMFGDEEVMCLNGNWTEPPQCKDSTGKCGPPPPIDNGDITSFPLSVYAPASSVEYQCQNLYQLEGNKRITCRNGQWSEPPKCLHPCVISREIMENYNIALRWTAKQKLYSRTGESVEFVCKRGYRLSSRSHTLRTTCWDGKLEYPTCAKR"}}, "molecular_target": "human complement receptor 3 (CR3) on CR3-transfected CHO cells (CHO/CR3) (human), P11215", "assay": "flow cytometry on cells", "conditions": "remark: other sources report otherwise"}
{"binder": "B1", "values": [{"measurement": "fold increase in binding to CHO/CR3 cells compared to CHO/NEO cells", "result": 4, "unit": "fold"}]}
